Assay results as given in PMC12780214 (NPJ Vaccines, 2025).

T1: NiVM G head domain (residues 176-602) (Nipah virus Malaysia (NiVM), UniProt Q9IH62 176-602)
T1 sequence: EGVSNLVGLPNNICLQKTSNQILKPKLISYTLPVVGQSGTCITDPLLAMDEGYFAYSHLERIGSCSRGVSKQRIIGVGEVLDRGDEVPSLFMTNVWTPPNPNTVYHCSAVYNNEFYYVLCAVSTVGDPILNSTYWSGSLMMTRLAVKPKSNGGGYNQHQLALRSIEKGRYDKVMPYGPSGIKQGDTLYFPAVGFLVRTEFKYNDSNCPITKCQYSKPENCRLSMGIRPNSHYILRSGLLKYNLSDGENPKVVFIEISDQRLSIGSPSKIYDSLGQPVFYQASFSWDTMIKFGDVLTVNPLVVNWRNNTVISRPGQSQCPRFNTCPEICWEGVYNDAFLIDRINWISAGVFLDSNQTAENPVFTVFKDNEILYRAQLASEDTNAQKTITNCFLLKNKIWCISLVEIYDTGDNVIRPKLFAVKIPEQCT


Legend:
[1] = target: T2, NiVM G head domain (residues 176-602) (Nipah virus Malaysia (NiVM), UniProt Q9IH62); assay: BLI
[2] = target: NiVM G ectodomain (residues 96-602) (Nipah virus Malaysia (NP_112027), UniProt Q9IH62); assay: ELISA
[3] = target: LayV G head domain (residues 176-625) (Langya virus (UUV47206), UniProt A0AAX3C924); assay: ELISA
[4] = target: MojV G head domain (residues 176-625) (Mòjiāng virus (YP_009094095), UniProt W8TIR7); assay: ELISA
[5] = target: T1, NiVM G head domain (residues 176-602); assay: BLI
[6] = target: T2, NiVM G head domain (residues 176-602); assay: cryo-EM structure
[7] = target: deglycosylated NiVM G head domain without the His-tag (for crystallization) (Nipah virus Malaysia (NP_112027), UniProt Q9IH62); assay: crystal structure
[8] = target: HeV G head domain (residues 176-605) (Hendra virus (NP_047112, isolate …, UniProt O89343)); assay: ELISA
HeV G head domain (residues 176-605) (Hendra virus, sequence (O89343 176-604): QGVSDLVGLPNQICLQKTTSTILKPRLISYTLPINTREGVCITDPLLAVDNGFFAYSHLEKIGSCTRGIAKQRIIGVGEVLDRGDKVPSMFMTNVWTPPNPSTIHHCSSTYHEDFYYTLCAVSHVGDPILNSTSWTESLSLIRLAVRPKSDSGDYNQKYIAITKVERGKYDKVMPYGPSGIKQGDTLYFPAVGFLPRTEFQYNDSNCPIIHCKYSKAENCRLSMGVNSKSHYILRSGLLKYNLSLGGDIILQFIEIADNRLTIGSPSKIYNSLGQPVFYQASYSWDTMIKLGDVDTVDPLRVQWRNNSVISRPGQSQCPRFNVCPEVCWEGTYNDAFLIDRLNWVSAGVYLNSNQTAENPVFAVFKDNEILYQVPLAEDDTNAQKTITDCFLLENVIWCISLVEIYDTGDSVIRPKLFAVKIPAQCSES

Binder | binding result [1] | binding result [2] | binding result [3] | binding result [4] | binding result [6] | further results
S1E2 mAb (IgG) (antibody, V domains shown) VH: QMQLQESGPGLVKPSQSLSLTCSVTGYSITSGYYWNWIRQFSGNKLEWMGYINHDGSKNYNPSLKNRISITRDTSKNQFFLKLNSVTTEDTATYYCARDYGSYYYPMDYWGQGTSVTVSS VL: EIVLTQSPPIMSASPGEKVTITCSASSSVTFMHWFQQKPGTSPKLWIFSTSNLASGVPARFSGSGSGTSYSLTISRMEAEDAATYYCQQRSSYPFTFGSGTKLEIK | binds | binds | no binding (tested: 1 μg/mL) | no binding (tested: 1 μg/mL) |  | 
human ephrin-B2 (residues 27-167) (receptor) SIVLEPIYWNSSNSKFLPGQGLVLYPQIGDKLDIICPKVDSKTVGQYEYYKVYMVDKDQADRCTIKKENTPLLNCAKPDQDIKFTIKFQEFSPNLWGLEFQKNKDYYIISTSNGSLEGLDNQEGGVCQTRAMKILMKVGQD |  |  |  |  |  | binding result [5]: binds
S2B10 mAb (IgG) (antibody, V domains shown) VH: QMQLQESGPGLVKPSQSLSLTCTVTGYSITSDYAWNWIRQFPRNKLEWMGFITYSGSTSYNPSLKSRISLTRDTSKNQFFLQLSSVTTEDTATYYCARSGANWDWFAYWGQGTLVTVSA VL: DIQMTQSPASLAVSLGQRATISCRASESVDNYGNSFMHWYQQKPGQPPKLLIYRASKLESGIPARFSGSGSRTDFTLTINPVEADDVATYHCQQSNEDPWTFGGGTKLEIK | binds | binds | no binding (tested: 1 μg/mL) | no binding (tested: 1 μg/mL) |  | 
S1E2 Fab (Fab, V domains shown) VH: QMQLQESGPGLVKPSQSLSLTCSVTGYSITSGYYWNWIRQFSGNKLEWMGYINHDGSKNYNPSLKNRISITRDTSKNQFFLKLNSVTTEDTATYYCARDYGSYYYPMDYWGQGTSVTVSS VL: EIVLTQSPPIMSASPGEKVTITCSASSSVTFMHWFQQKPGTSPKLWIFSTSNLASGVPARFSGSGSGTSYSLTISRMEAEDAATYYCQQRSSYPFTFGSGTKLEIK |  |  |  |  | binds | 
S2B10 Fab (Fab, V domains shown) VH: QMQLQESGPGLVKPSQSLSLTCTVTGYSITSDYAWNWIRQFPRNKLEWMGFITYSGSTSYNPSLKSRISLTRDTSKNQFFLQLSSVTTEDTATYYCARSGANWDWFAYWGQGTLVTVSA VL: DIQMTQSPASLAVSLGQRATISCRASESVDNYGNSFMHWYQQKPGQPPKLLIYRASKLESGIPARFSGSGSRTDFTLTINPVEADDVATYHCQQSNEDPWTFGGGTKLEIK |  |  |  |  | binds | 
LN3D3 Fab (Fab, V domains shown) VH: EVKLEESGPELVKPGASVKMSCKASGYTFTNYVMHWVKQKPGQGLEWIGYVNPYNDGTQYNEKFRDKATLTSDKSSSTVYMELNSLTSEDSAVYYCTRGDYPYWVFEVWGAGTTVTVSS VL: EIQMTQSPATLSVTPGDSVSLSCRASQSISNNLHWYQQKSHESPRLLIKYASQSISGIPSRFSGSGSGTDFTLSINNLETEDFGMYFCQHSDSWPFTFGSGTKLEIK |  |  |  |  | binds | 
LN1F9 Fab (Fab, V domains shown) VH: EVKLVESGGGLVKPGGSLKLSCAASGFSFRNYAMSWVRQSPEKRLEWVAEVSSGGGYTYYPDTVTGRFTISRDNAKNILYLEMSSLRSEDTAMYYCTRDPDSSGYLAWFAYWGQGTLVTVSA VL: DILLTQSPASLSASVGETVTITCRASENINSYLAWYQQKQGKSPQLLVYNAKTLAEGVPSRFSGSGSDTQFSLKINTLQPEDFGTYYCQHHSGTPYTFGGGTKLEIK |  |  |  |  |  | binding result [7]: binds
LN3D3 mAb (IgG) (antibody, V domains shown) VH: EVKLEESGPELVKPGASVKMSCKASGYTFTNYVMHWVKQKPGQGLEWIGYVNPYNDGTQYNEKFRDKATLTSDKSSSTVYMELNSLTSEDSAVYYCTRGDYPYWVFEVWGAGTTVTVSS VL: EIQMTQSPATLSVTPGDSVSLSCRASQSISNNLHWYQQKSHESPRLLIKYASQSISGIPSRFSGSGSGTDFTLSINNLETEDFGMYFCQHSDSWPFTFGSGTKLEIK | binds | binds | no binding (tested: 1 μg/mL) | no binding (tested: 1 μg/mL) |  | 
LN1F9 mAb (IgG) (antibody, V domains shown) VH: EVKLVESGGGLVKPGGSLKLSCAASGFSFRNYAMSWVRQSPEKRLEWVAEVSSGGGYTYYPDTVTGRFTISRDNAKNILYLEMSSLRSEDTAMYYCTRDPDSSGYLAWFAYWGQGTLVTVSA VL: DILLTQSPASLSASVGETVTITCRASENINSYLAWYQQKQGKSPQLLVYNAKTLAEGVPSRFSGSGSDTQFSLKINTLQPEDFGTYYCQHHSGTPYTFGGGTKLEIK | binds | binds | no binding (tested: 1 μg/mL) | no binding (tested: 1 μg/mL) |  | binding result [8]: binds
